Reference: US20240254203A1 (ACHELOIS BIOPHARMA, published 2024)

B1: 2M-14E5 (antibody, V domains shown)
VH: EVQLVESGGGVVQPGRSLRLSCAASGFTFSTYSMHWVRQAPGKGLEWVAVISYDGSNKYYADSVKGRFTISRDNSKNTLYLQVNSLRAEDTAVYYCARSGGGSYRGPFDYWGQGTLVTVSS
VL: AIRMTQSPSFLSVSVGDRVTITCRASQGISSYLAWYQQKPGKAPKLLIYAASTLQSGVPSRFSGSGSGTEFTLTISSLQPEDFATYYCQQLNSYVTFGGGTKVEIK
B2: 2M-10B11 (antibody, V domains shown)
VH: EVQLVESGGGLVQPGGSLRLSCAASGFTVSSNYMSWVRQAPGKGLEWVSVIYSGGSTYYADSVKGRFTISRDNSKNTLYLQMNSLRAEDTAVYYCARATWLRGVMDVWGQGTTVTVSS
VL: QSALTQPHSVSESPGKTVTISCTGSSGSIASNYVQWYQQRPGSAPTTVIYEDNQRPSGVPDRFSGSIDSSSNSASLTISGLKTEDEADYYCQSYDSSNHWVFGGGTKLTVL
B3: C021 (antibody, V domains shown)
VH: QVQLQESGPGLVKPSQTLSLTCTVSGGSISSGGYYWSWIRQHPGKGLEWIGYIYYSGSTYYNPSLKSRVTISVDTSKNQFSLKLSSVTAADTAVYYCARVWQYYDSSGSFDYWGQGTLVTVSS
VL: not shown
B4: 0304-4A10 (antibody, V domains shown)
VH: EVQLVESGGGLVQPGGSLRLSCAASGFTFSTYAMHWVRQAPGKGLEYVSGISSNGGSTYYANSVKGRFTISRDNSKNTLYIQMGSLRAEDMAVYYCARSSSRGFDYWGQGTLVTVSS
VL: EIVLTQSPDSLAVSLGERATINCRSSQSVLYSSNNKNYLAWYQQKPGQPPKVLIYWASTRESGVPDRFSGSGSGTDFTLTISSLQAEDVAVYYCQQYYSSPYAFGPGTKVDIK
B5: 9A1 (antibody, V domains shown)
VH: EVQLLESGGGVVQPGRSLRLSCVVSGFTFNNYGMHWVRQAPGKGLEWVAVISYEGSVKYYGDHVDGRFTISRDPFKNTLYLHMNNLRPDDTAVYYCAKVSAIFWLGQGLSPIDVWGQGTTVTVSS
VL: DIVMTQSPATLSASPGERVTLSCRASQNIRNNLAWYQQKPGQAPRLLIHGASTRAAGAPARFSGSGSDTQFTLTVSSLQSEDFAVYYCHQYSKWPVTFGGGTKVDIK
B6: C018 (antibody, V domains shown)
VH: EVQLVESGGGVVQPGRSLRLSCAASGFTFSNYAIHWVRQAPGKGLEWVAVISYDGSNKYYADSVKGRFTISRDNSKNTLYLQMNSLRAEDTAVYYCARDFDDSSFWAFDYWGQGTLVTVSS
VL: DIQLTQSPSSLSASVGDRVTITCRASQSIRSYLNWYQQKPGKAPKLLIYAASSLQSGVPSRFSGSGSGTDFTLTISSLQPDDFATYYCQQSYSTPPATFGQGTKLEIK

Tests used:
[1] = target: T1, SARS CoV-2 spike protein (antigen of the mAb binding affinity values) (SARS CoV-2, UniProt P0DTC2 14-1213); test: assay not described; mAb; binding locale Spike S2
[2] = target: T1, SARS CoV-2 spike protein (antigen of …); test: assay not described; mAb; binding locale Spike RBD

Row | Binder | mAb Binding Affinity [1] | mAb Binding Affinity [2]
1 | B1 | 7 ng/mL | 
2 | B2 |  | 5 ng/mL
3 | B3 |  | 1.25 ng/mL
4 | B4 | 3 ng/mL | 
5 | B5 | 5 ng/mL | 
6 | B6 |  | 1.53 ng/mL
